Article PMC5296750
“And” between values parts separate entries of the source, which are not always exact repeats. Equal entries are not always repeated.

Columns and labels:
[1] = target: Pyrococcus abyssi minichromosome maintenance protein (PabMCM), full-length, devoid of inteins (Pyrococcus abyssi); test: SEC; Superose 6 10/300 GL, 20 mM HEPES pH 7.4, 150 mM NaCl, 0.3 ml/min; apparent molecular weight estimated against gel-filtration standards
[2] = target: Pyrococcus abyssi minichromosome maintenance protein (PabMCM), full-length, devoid of inteins (Pyrococcus abyssi); test: cryo-EM, reference-free 2D classification; Quantifoil grids with thin carbon, plunge-frozen; ~33,000 particles, Relion 2D classification without imposed symmetry
[3] = target: Pyrococcus abyssi minichromosome maintenance protein (PabMCM), full-length, devoid of inteins (Pyrococcus abyssi); test: negative-stain electron microscopy with single particle analysis; 1% uranyl acetate, FEI F20 FEG, 50,000x, MSA classification (IMAGIC-5), 3D reconstruction with EMAN2; map at 22 Å

“Pyrococcus abyssi minichromosome maintenance protein (PabMCM), full-length, devoid of inteins (enzyme)” was tested, and the stoichiometry N [1] was 8, the stoichiometry N [2] was 8 and the stoichiometry N [3] was 8 and 7.
